Measured values from the nanobody polyreactivity screen of Harvey et al. (2022).

Assay: yeast display, Sf9 membrane polyspecificity reagent, FACS + sequencing; frameworks hold sequencing errors
How it was run: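 Galactose induction of a Saccharomyces cerevisiae BJ5465 synthetic nanobody display library ran 36–48 hours. The cells were then stained for 1 hour at 4 °C with 10% biotinylated, detergent-solubilized Sf9 membrane reagent, pulled down on streptavidin microbeads and FACS-sorted into low and high (top ~1%) gates on expression and reagent-binding fluorescence. Labels for polyreactivity follow the gate of origin.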

## QVQLVESGGGLVQAGGSLRLSCAASGSIFRPYAMGWYRQAPGKERELVAGITWGGSRTYYADSVKGRFTISRDNAKNTVYLQMNSLKPEDTAVYYCAAYPSTNGYIYYYWGQGSQVTVSS
  polyreactivity (PSR sort gate): high polyreactivity

## QVQLVESGGGLVQAGGSLRLSCAASGSIFRPYAMGWYRQAPGKERELVATINQSGSSTYYADSVKGRFTISRDNAKNTVYLQKNSLKPEDTAVYYCAVVYTYHGYTYDYWGQGTQVTVSS
  polyreactivity (PSR sort gate): low polyreactivity

## QVQLVESGGGLVQAGGSLRLSCAASGSIFRQYAMGWYRQAPGKERELVAAINYSGGNTYYADSVKGRFTISRDNAKNTVYLQMNSLKPEDTAVYYCAADSVRHFWWAYYYWGQGTQVTVSS
  polyreactivity (PSR sort gate): low polyreactivity

## QVQLVESGGGLVQAGGSLRLSCAASGSIFRRNAMGWYRQAPGKDRELVAAITTRGSRTTYADSVKGRFTISRDNAKNTVYLQMNSMKPEDTAVYYCAARQHFSYSFHVAYDYWGQGTQVTVSS
  polyreactivity (PSR sort gate): high polyreactivity

## QVQLVESGGGLVQAGGSLRLSCAASGSIFRRYAMGGYRQAPGKERELVAAITSGDTTKYADSVKGRFTISRDNAKNTVYLQMNSLKPEDTAVYYCNKKGWPRFVHGFLRRDDYWGQGTQVTVSS
  polyreactivity (PSR sort gate): low polyreactivity

## QVQLVESGGGLVQAGGSLRLSCAASGSIFRRYAMGWYRHAPGKEREFVAAITRSGGGTYYADSVKGRFTISRDNAKNTVSLQMNSLKPEDTAVYFCAKDVFVQRSRYPEGDYWGQGTQVTVSS
  polyreactivity (PSR sort gate): high polyreactivity

## QVQLVESGGGLVQAGGSLRLSCAASGSIFRRYAMGWYRKAPGKERELVAGISRGGGITYYADSVKGRFTISRDNAKNTVYLQMNSLKPEDTAVYYCAARIGATYWVDWTHRAYDYWGQGTQVTVSS
  polyreactivity (PSR sort gate): high polyreactivity

## QVQLVESGGGLVQAGGSLRLSCAASGSIFRRYAMGWYRQAPGKERELVAAISFSGGSTYYADSVKGRFTISRDNAKNTVYLQMNSLKPEDTAVYYCAARSYAYSGDYWGQGTQVNVSS
  polyreactivity (PSR sort gate): high polyreactivity

## QVQLVESGGGLVQAGGSLRLSCAASGSIFRRYAMGWYRQAPGKERELVAAISGSAGSTYYADSVKGRFTISRDNAKNTVYLQMNSLKPEDTAVYYCAADPDDGYDYWGQVTQVTVSS
  polyreactivity (PSR sort gate): low polyreactivity

## QVQLVESGGGLVQAGGSLRLSCAASGSIFRRYTMGWYRQAPGKERELVAAISRVGNTNYADSVKGRFTISRDNAKNTVYLQMNSLKPEDTAVYYCAARAIGYRYTPGLNYWGQGTQVTVSS
  polyreactivity (PSR sort gate): high polyreactivity

## QVQLVESGGGLVQAGGSLRLSCAASGSIFRRYVMGWYRQAPGKERELVASISSNGTSTYYADSVKGRFTISRDNSKNTVYLQMNSLKPEDTAVYYCNVDIFDPRTYDYWGQGTQVTVSS
  polyreactivity (PSR sort gate): low polyreactivity

## QVQLVESGGGLVQAGGSLRLSCAASGSIFRSNTMGWYRQAPGKERELVASITRGGSTNYADSVKGRFTISRDNAKNTVYLQMNSLKPEDTAVYYCIARRTVRYYFSYGYWGQGTQVTVSS
  polyreactivity (PSR sort gate): high polyreactivity

## QVQLVESGGGLVQAGGSLRLSCAASGSIFRSYAMGWYRQAPGKERELVAAIRSDGRTNYADSVKGRFTISRDNAKNTVYLQMNSLKPEDTAVYYCAAKAYYSYWRSMDYWGQGTQVTVSS
  polyreactivity (PSR sort gate): low polyreactivity

## QVQLVESGGGLVQAGGSLRLSCAASGSIFRSYAMGWYRQAPGKERELVAAISRRGGSTYYADSVKGRFTISRDNAKNTVYLQMNSLKPEDTAVYYCAADRTGPYDYWGQGTQVTVSS
  polyreactivity (PSR sort gate): high polyreactivity

## QVQLVESGGGLVQAGGSLRLSCAASGSIFRSYAMGWYRQAPGKERELVAAISSRSGSTYYADSVKGRFTISRDNAKNTVYLQMISLKPEDTAVYYCAAQHRHSYGYWGQGTQVTVSS
  polyreactivity (PSR sort gate): high polyreactivity

## QVQLVESGGGLVQAGGSLRLSCAASGSIFRSYAMGWYRQAPGKERELVAAISSSSGSTYYADSVKGRFTISRDNAKNTVYLQMNSLKPEDTAVYYCAARSRIGNNGYEYWGQGTQVTVSS
  polyreactivity (PSR sort gate): low polyreactivity

## QVQLVESGGGLVQAGGSLRLSCAASGSIFRSYAMGWYRQAPGKERELVAAITFSGGRTYYADSVKGRFTISRDNAKNTVYLQMNSLKPEDTGVYYCNARHRNLAEYDYWGQGTQVTVSS
  polyreactivity (PSR sort gate): low polyreactivity

## QVQLVESGGGLVQAGGSLRLSCAASGSIFRSYAMGWYRQAPGKERELVASISRRGGSTYYADSVKGRFTISRDNAKNTVYLQMNSLKLEDTAVYYCAAVRYNSRVSTTPSEMYYWGQGTQVTVSS
  polyreactivity (PSR sort gate): low polyreactivity

## QVQLVESGGGLVQAGGSLRLSCAASGSIFRSYAMGWYRQAPGKERQLVARISKRGGSTYYADSVKGRFTISRENAKNTVYLQMNSLKPEDSAVYYCNASYFRYRYNRYVYWGQGTQVTVSS
  polyreactivity (PSR sort gate): high polyreactivity

## QVQLVESGGGLVQAGGSLRLSCAASGSIFRSYAMGWYRQAPGNERELVAALSGRGSNTYYADSVKGRFTISRDNAKNTVYLQMNSLKPEDTAVYYGATRRHYGSTRSYDYWGQGTQVTVSS
  polyreactivity (PSR sort gate): high polyreactivity

## QVQLVESGGGLVQAGGSLRLSCAASGSIFRSYAMGWYSPSPGKERELVAAITRSGGSTYYADSVKGRFTISRDNAKNTVYLQMNSLKPEDTAVYYCAAEYYSYTWGWGHGYWGQGTQVTVSS
  polyreactivity (PSR sort gate): high polyreactivity

## QVQLVESGGGLVQAGGSLRLSCAASGSIFRTYVMGWYRQAPGKERELVATIDSTSGSTYYADSVKGRFTISRDNAKNTVYLQMNSLKPEDTAVYYCNVLVYYYYVVKSTYRWYDYWGQGTQVTVSS
  polyreactivity (PSR sort gate): high polyreactivity

## QVQLVESGGGLVQAGGSLRLSCAASGSIFRVYAMGWYRQAPGKERELVAAIRSGGGTNYADSVKGRFTISRDNAKITVYLQMNSLKPEDTAVYYCAREAATDISPGYDYWGQGTQVTVSS
  polyreactivity (PSR sort gate): low polyreactivity

## QVQLVESGGGLVQAGGSLRLSCAASGSIFRVYAMGWYRQAPGKERELVAAISSIVGSTYYADSVKGRFTISRDNAKNTVYLQMNSLKPADTAVYYCNKDGTWPRTGSEYDYWGQGTQVTVSS
  polyreactivity (PSR sort gate): low polyreactivity

## QVQLVESGGGLVQAGGSLRLSCAASGSIFRVYAMGWYRQAPGKERELVAAISVSGGSTNYADSVKGRFTISRDNAKNTVYLQMNSLKPEDTAVYYCNRKQQVSSELDYWGQGTQVTVSS
  polyreactivity (PSR sort gate): low polyreactivity

## QVQLVESGGGLVQAGGSLRLSCAASGSIFRVYAMGWYRQAPGKERELVASISRRGGSTYYADSVKGRFTISRDNAKKTVYLQMNSLKPEETAVYYFAAEFVIGGHGYDYWGQGTQVTVSS
  polyreactivity (PSR sort gate): high polyreactivity

## QVQLVESGGGLVQAGGSLRLSCAASGSIFRVYMGWYRQAPGKERELVATIRWSSGSTYYADSVKGRFTISRDNAKNTVYLQMNSLKPEDTAVYYCAVKGPYYDDYDYWGQGTQVTVSS
  polyreactivity (PSR sort gate): low polyreactivity

## QVQLVESGGGLVQAGGSLRLSCAASGSIFRWNAMGWYRQAPGKERELVAAIDSGGSTYADSVKGRFTISRDNAKNTVYLQMNSLKPEDTAVYYCAAEIPDEWPYDYWGQGTQVTVSS
  polyreactivity (PSR sort gate): low polyreactivity

## QVQLVESGGGLVQAGGSLRLSCAASGSIFRWNAMGWYRQAPGKERELVAAITWRSSSTYYADSVKGRFTISRDNAKNTVYLQMNSLKPEDTAVYYCNAKRGVQTYANFYGSKYDYWGQGTQVTVSS
  polyreactivity (PSR sort gate): high polyreactivity

## QVQLVESGGGLVQAGGSLRLSCAASGSIFRWYAMGWYRQAPGKERELVAAITWSASRTYYADSVKGRFTISRDNAKNTVYLQMNSLKPEDTAVYYCAKRGWSSVYFHGGFGYKLYDYWGQGTQVTVSS
  polyreactivity (PSR sort gate): low polyreactivity

## QVQLVESGGGLVQAGGSLRLSCAASGSIFRWYAMGWYRQAPGKERELVASITRSGGRTYYADSVKGRFTISRDNAKNTVYLQMNSLKPEDTAVYYCAADYYAYWYRYRYYYWGQGTQVTVSS
  polyreactivity (PSR sort gate): high polyreactivity

## QVQLVESGGGLVQAGGSLRLSCAASGSIFRWYDMGWYRQAPGKERELVAVISKRGGSTYYADSVKGRFSISRDNAKNTVYLQMTSLKPEDTAVYSCAKRYERWQLARLDYWGQGTQVTVSS
  polyreactivity (PSR sort gate): high polyreactivity

## QVQLVESGGGLVQAGGSLRLSCAASGSIFRWYTMGWYRQAPGKERELVAAISRSGGSTYYADSVKGRFTISRDNAKNTVYLQMNRLKPEDTAVYYCAADKFRHPYWDRYIYFHYDYWGQGTQVTVSS
  polyreactivity (PSR sort gate): low polyreactivity

## QVQLVESGGGLVQAGGSLRLSCAASGSIFRYAMGWYRQAPGKEREFVAAITSRGGTTYYADSVKGRFTISRDNAKNTVYLLMNSLKPEDTAVYYCYAHRYATAGSWVVRHDYWGQGTQGTVSS
  polyreactivity (PSR sort gate): high polyreactivity

## QVQLVESGGGLVQAGGSLRLSCAASGSIFRYNAMGWYRQAPGKERELVASISISDGSTYYADSVKGRFTISRDNAKNTVYLQMKSLKPEDTAVYYCAARTRDFYYPYDYWGQGTQVTVSS
  polyreactivity (PSR sort gate): low polyreactivity

## QVQLVESGGGLVQAGGSLRLSCAASGSIFRYNTMGWYRQAPGKERELVAAITSSGGRTYYADSVKGRFTISRDNAKNTVYLQMNSLKPEDTAVYYCAARRSFYGRVYDDQYDYWGQGTQVTVSS
  polyreactivity (PSR sort gate): high polyreactivity

## QVQLVESGGGLVQAGGSLRLSCAASGSIFRYNTMGWYRQAPGKERELVARISSGGSTYYADSVKGRFTISRDNAKNTVYLQMNSLKPEDTAVYYCAAVSRHRGWDRYYWGQGTQVTVSS
  polyreactivity (PSR sort gate): high polyreactivity

## QVQLVESGGGLVQAGGSLRLSCAASGSIFRYNTMGWYRQATGKERELDATITRRGGSTYYADSVKGRFTISRDNAKNTVYLQMNSLKPEDTAVYYCNADNFGGPFNYWGQGTQVTVSS
  polyreactivity (PSR sort gate): low polyreactivity

## QVQLVESGGGLVQAGGSLRLSCAASGSIFRYYAMGWYRPATGKERELVADITSSGGSTYYADSVKGRFTISRDNPKNTVYLQMNSLKREDTAVYYCASLYWFYVYPFTEYDYWGQGTQVTVSS
  polyreactivity (PSR sort gate): low polyreactivity

## QVQLVESGGGLVQAGGSLRLSCAASGSIFRYYAMGWYRQAPGKERELVAAITASSGNTYYADSVKGRFTISRDNAKNTVYLQMNRLKPEDTSVYYCSKQPGISYRHYDYWGLGTQVTVSS
  polyreactivity (PSR sort gate): high polyreactivity

## QVQLVESGGGLVQAGGSLRLSCAASGSIFRYYAMGWYRQAPGKERELVATISWRGGRTNYADSVKGRFTISRDNAKNTVYLQMNSLKPEDTAVYYCAADPVRRPWGVVGGDYWGQGTQVTVSS
  polyreactivity (PSR sort gate): high polyreactivity

## QVQLVESGGGLVQAGGSLRLSCAASGSIFRYYVMGWYRQAPGKEREFVAAISYRGGSTYYADSVKGRFTISRDNAKNTVYLEMNSLKPEDTAVYFCYAVHYRSFWTPGSNDYWGQGTQVTVSS
  polyreactivity (PSR sort gate): high polyreactivity

## QVQLVESGGGLVQAGGSLRLSCAASGSIFRYYVMGWYRQAPGKERELVAAITGGGGSTYYADSVKGRFTISRDNAKNTVYLQMNSLKPEDTAVYYCATATYVGVYWEYDYWGQGTQVTVSS
  polyreactivity (PSR sort gate): low polyreactivity
